Measurements taken from patent US20100099619A1.

Molecular target: neuropeptide Y4 receptor
Experiment: competition vs [125I]-hPP, Y4-transfected CHO-K1 membranes

neuropeptide Y4 receptor, sequence (P50391 whole entry): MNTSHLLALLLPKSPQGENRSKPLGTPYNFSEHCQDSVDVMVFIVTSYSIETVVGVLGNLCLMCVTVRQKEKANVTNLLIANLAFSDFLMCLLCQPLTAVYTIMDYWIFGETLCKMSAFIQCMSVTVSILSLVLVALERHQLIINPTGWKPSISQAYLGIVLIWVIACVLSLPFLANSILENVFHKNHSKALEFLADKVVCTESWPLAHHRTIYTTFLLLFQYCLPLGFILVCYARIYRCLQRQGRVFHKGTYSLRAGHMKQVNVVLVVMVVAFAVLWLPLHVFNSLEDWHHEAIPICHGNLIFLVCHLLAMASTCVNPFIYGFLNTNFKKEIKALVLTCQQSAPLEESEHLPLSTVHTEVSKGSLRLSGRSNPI

Y4 RBA [nM]	Substance
39	NPY (human neuropeptide Y) (peptide; modification not given)
4.5	PYY (human peptide YY) (peptide; modification not given)
54	PYY(3-36) (peptide; modification not given)
